The values that follow come from WO2009082624A2 (dated 2009).

For assay [1], the target named is T1, human IL-23 (p19/p40 heterodimer), recombinant (human, UniProt Q9NPF7 20-189; P29460 23-328).
T1 construct: R&D Systems without tags; eBioscience insect heterodimer; Whole entries named; also called hIL-23; rhIL-23
T1 sequence 1: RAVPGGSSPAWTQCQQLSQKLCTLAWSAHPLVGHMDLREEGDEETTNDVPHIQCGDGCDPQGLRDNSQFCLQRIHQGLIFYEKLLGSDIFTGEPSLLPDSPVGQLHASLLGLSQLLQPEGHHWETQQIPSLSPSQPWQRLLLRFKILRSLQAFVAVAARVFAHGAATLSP
T1 sequence 2: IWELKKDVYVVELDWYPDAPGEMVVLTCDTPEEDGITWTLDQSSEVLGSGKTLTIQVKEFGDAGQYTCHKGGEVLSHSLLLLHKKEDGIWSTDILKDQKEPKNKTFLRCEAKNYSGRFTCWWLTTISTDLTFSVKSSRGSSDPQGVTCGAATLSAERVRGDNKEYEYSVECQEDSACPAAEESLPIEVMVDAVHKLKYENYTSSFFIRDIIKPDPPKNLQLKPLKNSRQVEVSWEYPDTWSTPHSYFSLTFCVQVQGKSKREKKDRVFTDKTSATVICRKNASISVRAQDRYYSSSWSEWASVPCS
Nature of the assay: SPR off-rate analysis (Biacore T-100), IL-23 immobilised, 1:1 model.

Assay [2] addresses T1, human IL-23 (p19/p40 heterodimer), …. Nature of the assay: SPR (Biacore T-100), IL-23 immobilised on CM5, bivalent interaction model.
Assay [3] has the same target. Nature of the assay: cell-based or functional assay.

B1: human IL-23R-Fc soluble receptor (ZymoGenetics) (Fc fusion)
chain: GITNINCSGHIWVEPATIFKMGMNISIYCQAAIKNCQPRKLHFYKNGIKERFQITRINKTTARLWYKNFLEPHASMYCTAECPKHFQETLICGKDISSGYPPDIPDEVTCVIYEYSGNMTCTWNAGKLTYIDTKYVVHVKSLETEEEQQYLTSSYINISTDSLQGGKKYLVWVQAANALGMEESKQLQIHLDDIVIPSAAVISRAETINATVPKTIIYWDSQTTIEKVSCEMRYKATTNQTWNVKEFDTNFTYVQQSEFYLEPNIKYVFQVRCQETGKRYWQPWSSPFFHKTPETVPQVTSKAFQHDTWNSGLTVASISTGHLTSDNRGDIG
Regarding B1, the koff in assay [1] was ~0.0004 s⁻¹. In assay [2], the Kd was 0.8 nM. Also, the “IC50, IL-23-mediated IL-17A/A production in murine splenocytes” value in assay [3] turned out to be 26 nM.
